Data on one substance can be found in publication PMC8125063.

Assay [1] addresses human Fbp2 L190G mutein (human). The assay can be described thus: SEC; HiLoad 16/600 Superdex 200 pg; 50 mM HEPES-NaOH pH 7.5, 150 mM KCl, 1 mM MgCl2, with or without 100 µM CoCl2 and/or 10 µM AMP; 0.5 mg protein loaded, 1 mL/min. (SEC sorts molecules by how far they enter the pores of the column.)
Assay [2] shares this target. The assay can be described thus: native gel or EMSA; Native 9% PAGE; 200 mM Glycine-NaOH pH 9.0, 1 mM MgCl2, with or without 100 µM CoCl2 and/or 10 µM AMP in gel and running buffer; 3 h at 254 V.

Broadly, the stoichiometry N is the number of molecules, sites or subunits per partner or assembly. For human Fbp2 L190G mutein (enzyme), the stoichiometry N in assay [1] and in assay [2] was 2 throughout.
